# T1: CLL-1 on U937 cells (human, UniProt Q5QGZ9 1-265)
# T1 construct: whole, on cells; also called CLEC12A; Clec12A
# T1 sequence: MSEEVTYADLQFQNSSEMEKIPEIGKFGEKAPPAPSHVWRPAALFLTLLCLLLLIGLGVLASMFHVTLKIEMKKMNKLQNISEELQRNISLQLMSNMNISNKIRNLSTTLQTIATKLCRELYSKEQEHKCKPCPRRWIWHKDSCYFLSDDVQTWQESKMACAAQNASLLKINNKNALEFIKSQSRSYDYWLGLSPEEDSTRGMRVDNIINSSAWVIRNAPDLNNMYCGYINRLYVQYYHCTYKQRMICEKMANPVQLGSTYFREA
# T2: Clec12A-His (Sino Biological, 11896-H07H) (human, UniProt Q5QGZ9 65-265)
# T2 construct: Bought soluble protein; also called soluble CLEC12a-His; Sino Biological Clec12A
# T2 chain: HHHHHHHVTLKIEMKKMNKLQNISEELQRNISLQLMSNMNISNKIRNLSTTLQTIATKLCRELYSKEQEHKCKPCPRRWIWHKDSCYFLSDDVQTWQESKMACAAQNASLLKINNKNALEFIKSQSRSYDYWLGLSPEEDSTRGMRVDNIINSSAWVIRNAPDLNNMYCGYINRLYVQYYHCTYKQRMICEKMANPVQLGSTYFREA
# Legend:
# CLL-1 on U937 cells [1] = biological target: T1, CLL-1 on U937 cells; test: flow cytometry on U937 cells, clone lysate, anti-cMyc-PE (Table 3 summary)
# CLL-1 on U937 cells [2] = biological target: T1, CLL-1 on U937 cells; test: flow cytometry on U937 cells, 3x serial dilutions from 3 ug/ml, anti-His-PE
# Experimental: (§1) U937 cell binding by VHH clones was assessed using varying doses to determine EC50s. Briefly, the method included: VHH clones (3 ug/ml as starting conc./test, with 3× serial dilutions) in FACS buffer were added to Fc blocked U937 or 293T-CLL1 cells (2.5×10\hat{ }5), the mixtures were incubated for 30 min at 4° C., then washed twice with FACS buffer by spinning at 500G for 2 min; anti-His-PE was added to cells, the mixture was incubated for 30 min at 4° C. and washed twice with FACS buffer by spinning at 500G for 2 min; 1% PFA (Paraformaldehyde) in PBS was added to cell pellet to fix the cells, followed by FACS analysis. VHH clones tested: 1B5: stock=1.6 mg/ml; 1H1: stock=1.9 mg/ml; 1G6: stock=1.1 mg/ml; 2F3: stock=1.45 mg/ml; 2F5: stock=0.5 mg/ml; 2H3: stock=2 mg/ml.
# CLL-1 on U937 cells [3] = biological target: T1, CLL-1 on U937 cells; test: flow cytometry on U937 cells, % binding against ng/ml, detected with a-His-PE; EC50 of the fitted curve
# Experimental: as §1
# CLL-1 on U937 cells [4] = biological target: T1, CLL-1 on U937 cells; test: flow cytometry on U937 cells, VHH in 3-fold dilutions, detected with a-His-PE; percent of cells positive
# Experimental: as §1
# [5] = biological target: T2, Clec12A-His (Sino Biological, …); test: ELISA on plate coated with CLEC12a-His; unlabeled VHH at 10 ug/ml first, biotinylated VHH at 0.2 ug/ml second, streptavidin-HRP
# Experimental: ELISAs were used to determine if the VHH clones recognized distinct or similar epitopes. […] The plate was blocked with 0.3% nonfat milk in TBS (200 ul/well) for 1 hr at RT. The plates were washed 3× with 1×TBST (0.1 M Tris, 0.5 M NaCl and 0.05% Tween-20). The test anti-CLEC12a VHHs were added at 10 ug/ml horizontally across the plate, 100 ul per well and incubated for 1 h. Without washing, the test anti-CLEC12a biotinylated VHHs were added at 0.2 ug/ml vertically down the plate, 100 ul per well and incubate for 1 h. After being washed 3× with 1×TBST, HRP-conjugated streptavidin (Pierce #21130) at 1:2000 (100 ul/well) was added, followed by incubation at RT in the dark for 1 hr. For detection, 1-Step Ultra TMB-ELISA reagent (Thermo Fisher #34028) was added at 100 ul per well and read at 450 nm. […] The 1H1 VHH was distinct from these, and 2C2 was intermediate. Results are depicted in FIGS. 7A-7D.
# CLL-1 on U937 cells [6] = biological target: T1, CLL-1 on U937 cells; test: flow cytometry on U937 cells, VHH at 3 ug/ml, detected with a-His-PE; a-His-PE alone 1.1% and 5,576.5, unstained 0.6% and 5,793.5
# Experimental: U937 cell binding by VHH clones was assessed. Briefly, the method included: U937 cells (2.5×10\hat{ }5) were Fc blocked (human Fc block, BD Cat. #BDB564220) for 10 min at room temperature, then washed once with FACS buffer (PBS+1% BSA+0.1% Sodium Azide) by spinning at 500G for 2 min; VHH clones (3 μg/ml as final conc) in FACS buffer were added to the cell pellets and incubated for 30 min at 4° C., then washed twice with FACS buffer by spinning at 500G for 2 min; anti-His-PE (R&D Systems, Cat. #IC050P) was added to cells; the mixture was incubated for 30 min at 4° C. and washed twice with FACS buffer by spinning at 500G for 2 min; 1% PFA (Paraformaldehyde) in PBS was added to cell pellet to fix the cells, followed by FACS analysis. VHH clones tested: 1B5: stock=1.6 mg/ml; 1H1: stock=1.9 mg/ml; 1G6: stock=1.1 mg/ml; 2F3: stock=1.45 mg/ml; 2F5: stock=0.5 mg/ml; 2H3: stock=2 mg/ml. As shown in FIGS. 2A-2C, binding of clones 1H1, 1G6, 2F5 and 2H3 to U937 cells was detected with anti-His-PE; very little binding of clones 1B5 and 2F3 to U937 cells could be detected by anti-His-PE.
binder,measurement,setting,value
"VHH clone 2H10 (VHH, includes myc and His tags; also called 1G3) VHH: QVQLQEFGGGLVQAGGSLRLSCAASGSIFAINEINLMGWYRQAPGKQRELVAACASDGNTYYADSVKGRFTISRDNAEKTVYLQMNNLKPDDTAVYYCDANSRGNYYSGQGTQVTVSS",% FACS positive,CLL-1 on U937 cells [1],85.9%
"VHH clone 1G6 (VHH, includes myc and His tags; also called 2G11; 2H2) VHH: QVQLQQSGGGLVQAGGSLRLSCAASGSIFAINEINLMGWYRQAPGKQRELVAACASDGNTYYADSVKGRFTISRDNAEKTVYLQMNNLKPDDTAVYYCDANSRGNYYSGQGTQVTVSS",EC50,CLL-1 on U937 cells [2],0.49 nM
same,EC50,CLL-1 on U937 cells [3],7.72 ng/mL
same,% binding at 1.4 ng/ml,CLL-1 on U937 cells [4],6%
same,% binding at 4.1 ng/ml,CLL-1 on U937 cells [4],26.8%
same,% binding at 12.3 ng/ml,CLL-1 on U937 cells [4],56.7%
same,% binding at 37.0 ng/ml,CLL-1 on U937 cells [4],83.1%
same,% binding at 111.1 ng/ml,CLL-1 on U937 cells [4],87.7%
same,% binding at 333.3 ng/ml,CLL-1 on U937 cells [4],88.2%
same,% binding at 1000 ng/ml,CLL-1 on U937 cells [4],88.6%
same,% binding at 3000 ng/ml,CLL-1 on U937 cells [4],88.9%
same,binding result,[5],binds
same,% of This Plot (R3 PE+),CLL-1 on U937 cells [6],95.6%
same,Mean FL2-A (R3 gate),CLL-1 on U937 cells [6],9310
"VHH clone 2A11 (VHH, Includes myc and His tags) VHH: QVQLQESGGGLVQPGGSLRLSCAASGSIFAINEINLMGWYRQAPGKQRELVAACASDGNTYYADSVKGRFTISRDNAEKTVYLQMNNLKPDDTAVYYCDANSRGNYYSGQGTLVTVSS",% FACS positive,CLL-1 on U937 cells [1],86.3%
"VHH clone 2F5 (VHH, Includes myc and His tags) VHH: QVQLQQSGGGLAQTGGSLILSCAASGSIFAINEINLMGWYRQAPGKQRELVAACASDGNTYYADSVKGRFTISRDNAEKTVYLQMNNLKPDDTAVYYCDANSRGNYYSGQGTQVTVSS",EC50,CLL-1 on U937 cells [2],0.47 nM
same,% FACS positive,CLL-1 on U937 cells [1],72.7%
same,EC50,CLL-1 on U937 cells [3],7.45 ng/mL
same,% binding at 1.4 ng/ml,CLL-1 on U937 cells [4],4.6%
same,% binding at 4.1 ng/ml,CLL-1 on U937 cells [4],24.2%
same,% binding at 12.3 ng/ml,CLL-1 on U937 cells [4],59.3%
same,% binding at 37.0 ng/ml,CLL-1 on U937 cells [4],83.1%
same,% binding at 111.1 ng/ml,CLL-1 on U937 cells [4],86%
same,% binding at 333.3 ng/ml,CLL-1 on U937 cells [4],86.7%
same,% binding at 1000 ng/ml,CLL-1 on U937 cells [4],85.9%
same,% binding at 3000 ng/ml,CLL-1 on U937 cells [4],86.4%
same,binding result,[5],binds
same,% of This Plot (R3 PE+),CLL-1 on U937 cells [6],95.5%
same,Mean FL2-A (R3 gate),CLL-1 on U937 cells [6],9260
"VHH clone 2C8 (VHH, Includes myc and His tags) VHH: QVQLVESGGGLVQAGGSLRLSCAASGSIFAINEINLMGWYRQAPGKQRELVAACASDGNTYYADSVKGRFTISRDNAEKTVYLQMNNLKPDDTAVYYCDANSRGNYYSGQGTLVTVSS",% FACS positive,CLL-1 on U937 cells [1],73.4%
"VHH clone 1B5 (VHH, Includes myc and His tags) VHH: QVQLQESGGGLVQAGGSLRLSCVVSGATSNVNAMGWYRQAPGKERELVAAISSGGSTSYRDSVKGRFTISRDNAKNTLYLQMNSLKPEDTAMYYCAAQDWATEGYEYDYWGQGTLVTVSS",% of This Plot (R3 PE+),CLL-1 on U937 cells [6],2.3%
same,Mean FL2-A (R3 gate),CLL-1 on U937 cells [6],4130
"VHH clone 2F3 (VHH, Includes myc and His tags) VHH: QVQLQAFGGGLVQPGGSLRLSCVVSGTMFSGKDVNWLRQAPGKHVEVVATVSSDGGTDYADFVKGRFTISRDDAKNTVNLQMNSLEPEDTANYMCHFLWGRHYWGQGTQVTVSS",% of This Plot (R3 PE+),CLL-1 on U937 cells [6],12.4%
same,Mean FL2-A (R3 gate),CLL-1 on U937 cells [6],3570
